Data published in FireProtDB (doi:10.1021/bi051013y).

Conditions: Pleurotus ostreatus, Thermal, whole UniProt chain shown
[1] = pH 6, 25 °C, Absorbance, Carbonate 10 mM, reversible: yes
[2] = pH 6, Absorbance, Carbonate 10 mM, reversible: yes
[3] = pH 6, absorbance, HEPES, transition: 2, reversible: YES
[4] = pH 8, 25 °C, Absorbance, HEPES 10 mM, reversible: yes
[5] = pH 8, Absorbance, HEPES 10 mM, reversible: yes
[6] = pH 8, absorbance, HEPES, transition: 2, reversible: YES
[7] = pH 9, Absorbance, Borate 10 mM, reversible: yes
[8] = pH 9, absorbance, HEPES, transition: 2, reversible: YES
[9] = pH 10, 25 °C, Absorbance, Carbonate 10 mM, reversible: yes
[10] = pH 10, Absorbance, Carbonate 10 mM, reversible: yes
[11] = pH 10, absorbance, HEPES, transition: 2, reversible: YES
[12] = pH 11, 25 °C, Absorbance, Carbonate 10 mM, reversible: yes
[13] = pH 11, Absorbance, Carbonate 10 mM, reversible: yes

B1: wild type, Q56QW9 (protein)
chain: AYAQWVIILIHNVGQQNVKIKNLNASWGKLYADGDKDTEVPASKYEGMVIAPGDQVQINACGREDAAEGTTGTFDLVDPNDSDKQVRHISWDCPWGTKANSWVVGGSNSKWMIEYTGQNLDSGALGTITVNTLKIGN
[1]
  heat capacity change of unfolding: 2.87 kcal/mol/K
  unfolding enthalpy (van 't Hoff): 263 kJ/mol
  unfolding free energy: 30.4 kJ/mol
[2]
  Tm: 48.6 °C
  unfolding enthalpy (van 't Hoff): 546 kJ/mol
[3]
  Tm: 48.6 °C
  unfolding enthalpy (van 't Hoff): 546 kJ/mol
pH 6, absorbance, HEPES
  unfolding enthalpy (calorimetric): 263 kJ/mol
  unfolding free energy: 30.4 kJ/mol
pH 7, absorbance, HEPES, transition: 3, reversible: YES
  Tm: 54.6 °C
[4]
  heat capacity change of unfolding: 2.87 kcal/mol/K
  unfolding enthalpy (van 't Hoff): 270 kJ/mol
  unfolding free energy: 37.4 kJ/mol
[5]
  Tm: 51.2 °C
  unfolding enthalpy (van 't Hoff): 584 kJ/mol
[6]
  Tm: 51.2 °C
  unfolding enthalpy (van 't Hoff): 584 kJ/mol
pH 8, absorbance, HEPES
  unfolding enthalpy (calorimetric): 270 kJ/mol
  unfolding free energy: 37.4 kJ/mol
[7]
  Tm: 47.2 °C
  unfolding enthalpy (van 't Hoff): 543 kJ/mol
[8]
  Tm: 47.2 °C
  unfolding enthalpy (van 't Hoff): 543 kJ/mol
pH 9, absorbance, HEPES
  unfolding enthalpy (calorimetric): 277 kJ/mol
  unfolding free energy: 29.5 kJ/mol
[9]
  heat capacity change of unfolding: 2.87 kcal/mol/K
  unfolding enthalpy (van 't Hoff): 253 kJ/mol
  unfolding free energy: 14.5 kJ/mol
[10]
  Tm: 39.4 °C
  unfolding enthalpy (van 't Hoff): 426 kJ/mol
[11]
  Tm: 39.4 °C
  unfolding enthalpy (van 't Hoff): 426 kJ/mol
pH 10, absorbance, HEPES
  unfolding enthalpy (calorimetric): 253 kJ/mol
  unfolding free energy: 14.5 kJ/mol
[12]
  heat capacity change of unfolding: 2.87 kcal/mol/K
  unfolding enthalpy (van 't Hoff): 278 kJ/mol
  unfolding free energy: 9.71 kJ/mol
[13]
  Tm: 34.6 °C
  unfolding enthalpy (van 't Hoff): 393 kJ/mol
pH 11, absorbance, HEPES
  unfolding enthalpy (calorimetric): 278 kJ/mol
  unfolding free energy: 9.71 kJ/mol
